Measurements as given in patent US20100215651A1 (GLENMARK PHARMACEUTICALS S A, published 2010).

Tests used:
human CD19 [1] = target: T1, human CD19 (human, UniProt P15391 20-556); assay: flow cytometry, Raji cells, MPF vs chimeric FMC63
T1 construct: CD19 as expressed on Raji, NALM-6 and SU-DHL-6 cells; also called CD19 antigen; B-cell surface antigen B4
T1 sequence: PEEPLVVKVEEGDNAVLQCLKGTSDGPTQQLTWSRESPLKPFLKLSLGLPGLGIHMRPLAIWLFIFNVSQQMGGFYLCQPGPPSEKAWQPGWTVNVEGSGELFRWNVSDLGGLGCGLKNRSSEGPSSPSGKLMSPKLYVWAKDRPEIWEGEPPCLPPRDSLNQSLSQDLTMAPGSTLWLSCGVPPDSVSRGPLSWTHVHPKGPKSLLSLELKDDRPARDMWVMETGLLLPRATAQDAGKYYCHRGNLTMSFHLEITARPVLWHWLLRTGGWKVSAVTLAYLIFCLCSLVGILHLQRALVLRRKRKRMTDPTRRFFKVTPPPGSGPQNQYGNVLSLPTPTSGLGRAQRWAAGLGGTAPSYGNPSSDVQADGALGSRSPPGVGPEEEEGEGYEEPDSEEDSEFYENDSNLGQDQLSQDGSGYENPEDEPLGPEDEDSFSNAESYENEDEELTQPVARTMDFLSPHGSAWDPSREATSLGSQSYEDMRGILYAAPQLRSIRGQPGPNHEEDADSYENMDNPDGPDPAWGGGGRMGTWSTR
Method: (§1) Binding of the CD19 humanized monoclonal antibodies by flow cytometry to Raji tumor cells (human Burkitt lymphoma, DSMZ ACC319), NALM-6 (human B cell precursor leukemia, DSMZ ACC128) and SU-DHL-6 (human B cell lymphoma, DSMZ ACC572) (all cell lines from DSMZ Braunschweig, Deutschland) was assessed. Cells were incubated with serial dilutions of each humanized monoclonal antibody. An irrelevant human IgG1 was used as a negative control. The cells were washed and detected by a phycoerythrin-labeled (PE) anti-human secondary antibody (eBioscience, CA, USA) and analyzed by flow cytometry. […] From MFI versus antibody concentration curves, Mid-Point Fluorescence (MPF) value for each anti-CD19 humanized antibody was calculated using the software GraphPad Prism 5 (CA, USA).

human CD19 [2] = target: T1, human CD19; assay: flow cytometry on SU-DHL-6 cells, PE-labelled anti-human secondary antibody, MFI against antibody concentration
Method: as §1

human CD19 [3] = target: T1, human CD19; assay: Scatchard analysis (Bound/Free against Bound) of europium-labelled antibody on Raji cells, time resolved fluorescence
Method: Raji cells as described in Example 2 were grown in RPMI-1640 medium (Chemie Brunschwig AG, PAA, Basel, Switzerland) supplemented with 10% fetal bovine serum (FBS, Chemie Brunschwig AG, PAA, Basel, Switzerland), 2 mM ultraglutamine 1 (Lonza, Verviers, Belgium) and 1% penicillin/streptomycin (Chemie Brunschwig AG, PAA, Basel, Switzerland). The cells were washed with the same culture medium and adjusted to a final concentration of 1×10⁶ cells/ml. A 100 μl volume of Raji cells was seeded in U-bottomed 96-well plate. […] Cells were incubated with Eu³⁺-antibody for 15 minutes on ice to reach equilibrium. The amount of free Eu³⁺-labelled antibodies were measured by transferring aliquots of cell-free supernatant (volumes were empirically adjusted depending on antibody concentration; cells were spun at 1300 RPM for 2 min) into a fresh plate containing 100 μl of Delfia solution (PerkinElmer, MA, USA; an enhancer of Eu³⁺ fluorescence). To ensure complete removal of the supernatant, cells were spin down once more at 1300 RPM for 2 minutes. After the second centrifugation, the supernatant was discarded, and cells were washed twice with 200 μl of cold binding buffer (PBS-2.5% FBS-0.05% NaN₃). Cell pellets were resuspended into 100 μl of Delfia solution.

human CD19 [4] = target: T1, human CD19; assay: competition with 0.2 nM Eu3+-labelled chimeric FMC63 on Raji cells
Method: To that aim, 100 μl volumes of Raji cells in RPMI-1640 medium (Chemie Brunschwig AG, PAA, Basel, Switzerland) supplemented with 10% fetal bovine serum (FBS, Chemie Brunschwig AG, PAA, Basel, Switzerland), 2 mM ultraglutamine 1 (Lonza, Verviers, Belgium) and 1% penicillin/streptomycin (Chemie Brunschwig AG, PAA, Basel, Switzerland), prepared at concentration of 1×10⁶ cells/ml were seeded in a U-bottomed 96-well plate. […] The antibody dilutions were cooled down to 4° C. before 100 μl was taken and added on the Raji cells. […] Cells were incubated with the antibodies for 15 minutes on ice. After reaching equilibrium, the cells were centrifuged at 1300 RPM for 2 minutes and supernatant was discarded. Cell pellets were washed twice with 200 μl of cold binding buffer PBS-2.5% FBS-0.05% NaN₃, and resuspended into 100 μl of Delfia solution. Cell bound Eu³+-FMC63 was measured with time resolved fluorescence as described above. The amount of Eu³+-FMC63 (fmole) per well was determined and plotted versus the total amount of unlabelled antibody.

human CD19 [5] = target: T1, human CD19; assay: flow cytometry, Raji cells, MPF vs chimeric FMC63; remark: listed apart in the source
human CD19 [6] = target: T1, human CD19; assay: cell-based or functional assay
human CD19 [7] = target: T1, human CD19; assay: binding to Raji cells
human CD19 [8] = target: T1, human CD19; assay: flow cytometry, Raji cells, MPF vs chimeric FMC63; remark: listed apart in the source
Method: as §1

human CD19 [9] = target: T1, human CD19; assay: flow cytometry, NALM-6 cells, MPF vs chimeric FMC63
Method: as §1

human CD19 [10] = target: T1, human CD19; assay: flow cytometry on Raji cells
Method: as §1

B1: VH16 R94K VL43 N92A (antibody, human IgG1)
heavy: not shown
VL: DIVMTQTPSSLSASVGDRVTITCRASQDISKYLNWYQQKPGKAPKLLIYHTSRLHSGVPSRFSGSGSGTDFTLTISSLQPEDFATYYCQQGATLPYTFGPGTKVDIKRTVAA
notes: Full-length human IgG1/kappa; substitutions in Kabat numbering
relative MPF (% of chimeric FMC63) (human CD19 [1]): 25.9%

B2: VH16 R94K VL43 P44I (antibody, human IgG1, V domains shown)
VH: QVQLVQSGGGVVQPGRSLRLSCAASGVSLPDYGVSWVRQAPGKGLEWVAVIWGSETTYYNSALKSRFTISRDNSKNTLYLQMNSLRAEDTAVYYCAKHYYYGGSYAMDYWGQGTLVTVSS
VL: DIVMTQTPSSLSASVGDRVTITCRASQDISKYLNWYQQKPGKAIKLLIYHTSRLHSGVPSRFSGSGSGTDFTLTISSLQPEDFATYYCQQGNTLPYTFGPGTKVDIKR
notes: as for B1
EC50 (read off the curve) (human CD19 [2]): ~0.09 µg/mL | Kd (human CD19 [3]): 19 nM

B3: VH16 R94K VL43 T93A (antibody, human IgG1, V domains shown)
VH: QVQLVQSGGGVVQPGRSLRLSCAASGVSLPDYGVSWVRQAPGKGLEWVAVIWGSETTYYNSALKSRFTISRDNSKNTLYLQMNSLRAEDTAVYYCAKHYYYGGSYAMDYWGQGTLVTVSS
VL: DIVMTQTPSSLSASVGDRVTITCRASQDISKYLNWYQQKPGKAPKLLIYHTSRLHSGVPSRFSGSGSGTDFTLTISSLQPEDFATYYCQQGNALPYTFGPGTKVDIKR
notes: as for B1
relative MPF (% of chimeric FMC63) (human CD19 [1]): 34.1%

B4: VH16 R94K VL43 T93V (antibody, human IgG1, V domains shown)
VH: QVQLVQSGGGVVQPGRSLRLSCAASGVSLPDYGVSWVRQAPGKGLEWVAVIWGSETTYYNSALKSRFTISRDNSKNTLYLQMNSLRAEDTAVYYCAKHYYYGGSYAMDYWGQGTLVTVSS
VL: DIVMTQTPSSLSASVGDRVTITCRASQDISKYLNWYQQKPGKAPKLLIYHTSRLHSGVPSRFSGSGSGTDFTLTISSLQPEDFATYYCQQGNVLPYTFGPGTKVDIKR
notes: Full-length human IgG1/kappa; substitutions in Kabat numbering; also called VK16 R94K VL43 T93V
relative MPF (% of chimeric FMC63) (human CD19 [1]): 17.4%

B5: VH16-R94K/VL43-V3Q-T7S-P44I-N92A (antibody, human IgG1, kappa, V domains shown)
VH: QVQLVQSGGGVVQPGRSLRLSCAASGVSLPDYGVSWVRQAPGKGLEWVAVIWGSETTYYNSALKSRFTISRDNSKNTLYLQMNSLRAEDTAVYYCAKHYYYGGSYAMDYWGQGTLVTVSS
VL: DIQMTQSPSSLSASVGDRVTITCRASQDISKYLNWYQQKPGKAIKLLIYHTSRLHSGVPSRFSGSGSGTDFTLTISSLQPEDFATYYCQQGATLPYTFGPGTKVDIKR
notes: human IgG1/kappa
Ki (human CD19 [4]): 3.9 nM | EC50 (read off the curve) (human CD19 [2]): ~0.09 µg/mL | relative MPF (% of chimeric FMC63) (human CD19 [5]): 83.3% | ADCC: specific lysis of Raji cells by PBMC (LDH release), against IgG1 control (human CD19 [6]): ≥ 3 fold

B6: VH16 R94K VL43 F71H (antibody, human IgG1, V domains shown)
VH: QVQLVQSGGGVVQPGRSLRLSCAASGVSLPDYGVSWVRQAPGKGLEWVAVIWGSETTYYNSALKSRFTISRDNSKNTLYLQMNSLRAEDTAVYYCAKHYYYGGSYAMDYWGQGTLVTVSS
VL: DIVMTQTPSSLSASVGDRVTITCRASQDISKYLNWYQQKPGKAPKLLIYHTSRLHSGVPSRFSGSGSGTDHTLTISSLQPEDFATYYCQQGNTLPYTFGPGTKVDIK
binding result (human CD19 [7]): binds

B7: VH16/VL43 (antibody, human IgG1, V domains shown)
VH: QVQLVQSGGGVVQPGRSLRLSCAASGVSLPDYGVSWVRQAPGKGLEWVAVIWGSETTYYNSALKSRFTISRDNSKNTLYLQMNSLRAEDTAVYYCARHYYYGGSYAMDYWGQGTLVTVSS
VL: DIVMTQTPSSLSASVGDRVTITCRASQDISKYLNWYQQKPGKAPKLLIYHTSRLHSGVPSRFSGSGSGTDFTLTISSLQPEDFATYYCQQGNTLPYTFGPGTKVDIKR
Ki (human CD19 [4]): 72.8 nM | relative MPF (% of chimeric FMC63) (human CD19 [8]): 7.14% | relative MPF (% of chimeric FMC63) (human CD19 [1]): 7.14% | relative MPF (% of chimeric FMC63) (human CD19 [5]): 7.42% | relative MPF (% of chimeric FMC63) (human CD19 [9]): 3.29%

B8: VH16-Y32F-R94K-Y97F/VL43-V3Q-T7S-N92A (antibody, human IgG1, name in Kabat numbering, V domains shown)
VH: QVQLVQSGGGVVQPGRSLRLSCAASGVSLPDFGVSWVRQAPGKGLEWVAVIWGSETTYYNSALKSRFTISRDNSKNTLYLQMNSLRAEDTAVYYCAKHYFYGGSYAMDYWGQGTLVTVSS
VL: DIQMTQSPSSLSASVGDRVTITCRASQDISKYLNWYQQKPGKAPKLLIYHTSRLHSGVPSRFSGSGSGTDFTLTISSLQPEDFATYYCQQGATLPYTFGPGTKVDIKR
notes: substitutions in Kabat numbering
Ki (human CD19 [4]): 49.9 nM | relative MPF (% of chimeric FMC63) (human CD19 [5]): 16.9%

B9: VH16 R94K VL43 F71S (antibody, human IgG1, V domains shown)
VH: QVQLVQSGGGVVQPGRSLRLSCAASGVSLPDYGVSWVRQAPGKGLEWVAVIWGSETTYYNSALKSRFTISRDNSKNTLYLQMNSLRAEDTAVYYCAKHYYYGGSYAMDYWGQGTLVTVSS
VL: DIVMTQTPSSLSASVGDRVTITCRASQDISKYLNWYQQKPGKAPKLLIYHTSRLHSGVPSRFSGSGSGTDSTLTISSLQPEDFATYYCQQGNTLPYTFGPGTKVDIK
binding result (human CD19 [7]): binds

B10: VH16 Y32F/R94K/Y97F/VL43 V3Q/T7S/Y32F/N92A (antibody, human IgG1, name in Kabat numbering, V domains shown)
VH: QVQLVQSGGGVVQPGRSLRLSCAASGVSLPDFGVSWVRQAPGKGLEWVAVIWGSETTYYNSALKSRFTISRDNSKNTLYLQMNSLRAEDTAVYYCAKHYFYGGSYAMDYWGQGTLVTVSS
VL: DIQMTQSPSSLSASVGDRVTITCRASQDISKFLNWYQQKPGKAPKLLIYHTSRLHSGVPSRFSGSGSGTDFTLTISSLQPEDFATYYCQQGATLPYTFGPGTKVDIKR
notes: as for B8
binding result (human CD19 [10]): no binding

B11: VH16 R94K VL43 F71T (antibody, human IgG1, V domains shown)
VH: QVQLVQSGGGVVQPGRSLRLSCAASGVSLPDYGVSWVRQAPGKGLEWVAVIWGSETTYYNSALKSRFTISRDNSKNTLYLQMNSLRAEDTAVYYCAKHYYYGGSYAMDYWGQGTLVTVSS
VL: DIVMTQTPSSLSASVGDRVTITCRASQDISKYLNWYQQKPGKAPKLLIYHTSRLHSGVPSRFSGSGSGTDTTLTISSLQPEDFATYYCQQGNTLPYTFGPGTKVDIK
binding result (human CD19 [7]): binds

B12: VH16 R94K/Y97F/VL43 V3Q/T7S/Y32F/N92A (antibody, human IgG1, name in Kabat numbering, V domains shown)
VH: QVQLVQSGGGVVQPGRSLRLSCAASGVSLPDYGVSWVRQAPGKGLEWVAVIWGSETTYYNSALKSRFTISRDNSKNTLYLQMNSLRAEDTAVYYCAKHYFYGGSYAMDYWGQGTLVTVSS
VL: DIQMTQSPSSLSASVGDRVTITCRASQDISKFLNWYQQKPGKAPKLLIYHTSRLHSGVPSRFSGSGSGTDFTLTISSLQPEDFATYYCQQGATLPYTFGPGTKVDIKR
notes: as for B8
binding result (human CD19 [10]): no binding
